The record followed here is PMC12152872 (2025).

The experiment concerns the target T1, BTN2A1 B30.2 (Homo sapiens, UniProt Q7KYR7).
T1 chain: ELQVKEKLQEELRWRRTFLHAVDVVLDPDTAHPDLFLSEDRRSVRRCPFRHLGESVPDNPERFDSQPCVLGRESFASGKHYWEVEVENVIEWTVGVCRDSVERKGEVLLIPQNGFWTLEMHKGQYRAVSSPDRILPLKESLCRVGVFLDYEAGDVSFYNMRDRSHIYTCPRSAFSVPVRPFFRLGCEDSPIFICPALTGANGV
Nature of the experiment: ITC.

Where “and” joins values, the source holds several entries; their conditions need not be identical. Identical values can stand only once.

B1: BTN3A1 B30.2 (protein)
chain: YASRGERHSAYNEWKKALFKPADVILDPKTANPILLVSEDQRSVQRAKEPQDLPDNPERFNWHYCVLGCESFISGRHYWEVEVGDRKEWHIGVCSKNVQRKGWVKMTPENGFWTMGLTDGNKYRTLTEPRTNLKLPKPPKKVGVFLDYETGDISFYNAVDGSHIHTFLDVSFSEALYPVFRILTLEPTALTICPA
modifications: DMASPP
In the case of B1, the Kd was 8.19 µM and 18.8 µM.
